The values below come from the nanobody polyreactivity screen of Harvey et al. (2022).

The nature of this series: yeast display, Sf9 membrane polyspecificity reagent, FACS + sequencing; frameworks hold sequencing errors. In outline: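 A synthetic nanobody library was expressed on Saccharomyces cerevisiae BJ5465 by galactose induction for 36–48 hours. The library was stained for 1 hour at 4 °C with 10% biotinylated, detergent-solubilized Sf9 membrane reagent and enriched with streptavidin microbeads before FACS. Low and high (top ~1%) gates were set on anti-HA fluorescence for expression and streptavidin fluorescence for reagent binding, and each polyreactivity label reflects the gate of origin.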
Turning to “QVQLVESGGGLVQAGGSLRLSCAASGFTSWHNDMGRYRQATGKERELVAAIDTGTGTYYADSVKGRFTISRDNAKNTVYLQLYSLKPEDTAVYYCAKDDLLVVRIVWFDYWGLGTQVTVSS”, the “polyreactivity (PSR sort gate)” value was “low polyreactivity”. As to “QVQLVESGGGLVQAGGSLRLSCAASGRIFGYYPKGCYRPAPGKERELVAAISSGGNTNYADSVKGRFTISRDNAKKTVYLQMNSLKPEDTAVYYCSAYHFSFGWIRVDYWGQGTQVTVSS”, the “polyreactivity (PSR sort gate)” value is reported as “high polyreactivity”.

For “QVQLVESGGGLVQAGGSLSLSCAASGFIFYRYAMGWYRQAPGKERELVAGISSRGGSTYYADSVKGRFTISRDNAKNTVYLQMNSLKPEDTAVYYCAKRPLTSNASQGDYWGQGTQVTVSS”, the “polyreactivity (PSR sort gate)” value was “high polyreactivity”. Next, “QVQLVESGGGLVQAGGSLRVSCAASGFIFGLYAMGWYRQAPGKERELVATISWDGGSTYYADSVKGRFTISRDNAKNTVYLQMNSLKPEDTAVYYCAATYLYRSPYVPMDYWGQGSQVTVSS”: “low polyreactivity”; “QVQLVESGGGLVQAGGSLRLSCAASGSTFQANTMGWYRQAPGKERELVAAISIRGANTYYADSVKGRFTISRDNAKNTVYLQMNSLKPEDTAVYYCNAALRTRRGDYDYWGQGTQVTVSS”: “high polyreactivity”. Turning to “QVQLVESGGGLVQAGGSLRLSCAASGITFSFYAMGWYRQAPAKERELVATIDSGGSTNYADSVKWRFTISRDNAKNTVYLQMNSLKPEYTAVYYCAADGVWYYYDMDYWGQGTQVTVSS”, the “polyreactivity (PSR sort gate)” value was “low polyreactivity”. “QVQLVESGGGLVQAGGSLRLSCAASGFIFSRYVMGWYRQAPGKERELVAAISRGGSTYYADSVKGRFTISRDNAKNTVYLQMNSLKPEDTAVYYCAVRSTRFLIYYPPYDYWGQGTQVTVSS”: the “polyreactivity (PSR sort gate)” value is “high polyreactivity”. For “QVQLVESGGGLVQAGGSLRLTCAASGRTFRPYDMGWYRQAPGKQRELVATITTNGGSTYYADSVKGRFTISRDNAMNTVYLQMTSLKPEDTAGYYCATDNSWPTYHYDGGYYWGQGTQVTVSS”, the “polyreactivity (PSR sort gate)” value is reported as “low polyreactivity”.

In the case of “QVQLEESGGCLVQAGGSLRLSCAASGITFVLYAMGWYRQAPGTERELVAAINIDGNTNYADSVKGRFTISRDNAKNTVYLQMNSLKPEDTAVYYCAATFVPAQSRYTCSKYDYWGQGTQVTVSS”, the “polyreactivity (PSR sort gate)” value was “low polyreactivity”.

Regarding “QVQLVESGGGLVQAGGSLRLSCAASGRIFVYNVMGWYRQAPGKERELVAAISWGTGSTYADSVKGRFTISRDNAKNTVYLQMHSLKPEDTAVYYCAADSFIPPYDHWGQGTQVTVSS”, the “polyreactivity (PSR sort gate)” value is on record as “low polyreactivity”. Next, “QVQLVESGGGLVQAGGSLRLSCAASGRIFIYNAMGWYRPAPGKERELVAAINRSGVSTHYADSVKGRFTISRDNEKNTVYLQMNSLKPEDTAVYYCARTVYGARSYDYWGQGTQVTVSS”: “low polyreactivity”; “QVQLVESGGGLVQAGGSLRLSCAASGFTFYRYTMGRYRQAPGKERELVAAITWSGGNTYYADSVKGRFTISRDNAKNTVYLQMNSLKPEDNAVYYCAAYKPYSKYNYWGQGTQVTVSS”: “high polyreactivity”; “QVQLVESGGGLVQAGGSLRLSCAASGSIFDDYGMGWYRQAPGKEWEFVADITSRGTRTYYADSVKGRFTISRDNAKNTVYLQMNCLKPEDTAGYYFNTLVGVDFWLVDYWGQGTQVTLSS”: “low polyreactivity”. The value for “QVQLVESGGGLVQAGGSLRLSCAASGYTFNFNAMGWYRQAPGKERELVAAITWNGGRTYYADSVKGRFTISRDNAKNTVYLQMNSLKPEDTAVYYCAARSYQRPSDTRYDYWGQGTQVTVSS” was “high polyreactivity”; that for “QVQLVESGGGLVQAGGSLRLSCAASGSTFWVYTMGWYRQAPGKERELVAAISYGGGRTYYADSVKGRFTISRDNEKNTVYLQMNSLKPEDTAVYYCNKDYWRDVAQDVLDGYEYWGQGTQVTVSS” was “low polyreactivity”; that for “QVQLVESGGGLVQAGGSLRLSCAASGFIFYYDAMGWYIQAPGKERELVARIYSGRSTYYADSVKGRFTISRDNAKNTVYLQMNSLKPEDTAVYYCNATRLVWFSQGYDYWGQGTQVTVSS” was “high polyreactivity”. On to “QVQLVESGGGLVQAGGSLRLSCAASGSIFYNALGWYRQAPGKERELVASISWSGGTSTYYADSVKGLFTISRDNAKNTVYLQMNSMKPEDTAVYYCAKASRYSSYWMYYWGQGTQVTVSS”, for which the “polyreactivity (PSR sort gate)” value is reported as “high polyreactivity”.

Turning to “QVQLVESGGGLVQAGGSLRLTCAASGSTFYYYTMGWYRQAPWKERELVAAITSAGSTHYADSVKGRFTISRDNAKNNVYLQMNSLKPEDTAVYYCAAKSHWWWRGYYYWGQGTQVTVSS”, the “polyreactivity (PSR sort gate)” value is “high polyreactivity”. Next, “QVQLVESGVGLVQAGGSLRLSCSASGSIFDYYAMGWYRQAHGKERELVAAISWRGGRTYYADSVKGRFTISRDNAKNTVYLQMNSLNPVDTAVYYCNTQEPYYESDYWGLGTQVTVSS”: “high polyreactivity”; “QVQLVESGGGLVQAGGSLRLSCAASGSIFGYAMGWYRQAPGKERELVAAITVSGGRTYYADSVKGRFTISRDNAKNTVYLQMNSLKPEDTAVYYCAAYYIKGYSPGYWGQGTQVTVSS”: “high polyreactivity”; “QVQLVESGRGLVQAGGSLRLSCASSGRIFARNAMGWYRKAPGQEREFVAAITFSGGSTYYAESVKGRFTISRDNAKNTVYLQMNSLKPEDTAVYYCAARSFDDWGQGTQVTVSS”: “high polyreactivity”. Next, “QVQLVESGGGLVQEGGSLRLSCAASGRTFVPYAMGWYRQAPGKERELVAAISRSGGRTYYADSVKGRFTLSRDNAKNTVYLQMKSLKPEDTAVYYCAARYYSEPNAYYYWGQGTQVSVSS”: “high polyreactivity”; “QVQLVESGGGLVQAGGSLRLSGAASGFIFDQNAMGGYRQPPGKVRELVAAISKRGGSTYYADSVKGRFTISRDNAMNTVYLQMNSLKPEDTAVYYCARPRRSVNFYKYIYNYWGQGTLVTVSS”: “high polyreactivity”; “QVQLVESGGGLVQAGGSLRISCAASVSTFDINTMGWYRQAPGKEREFVAAITDSDDSTYYADSVKGRFTISRDNAKNTVYLQMNSLKPEDSAVYYCAADRSHAYYRKNRVDYWGQGTQVTVSS”: “low polyreactivity”. As to “QVQLVESGGGLVQAGGSLRLSCAASGFIFTGYTMGWYRQAPGKERELVARISSGDSTKYADSVKGRFTISRDNAKNTVYLQMNSLKPEDTAVYYCAATTGYTARWRNRYIYYYWGQGTQVTVSS”, the “polyreactivity (PSR sort gate)” value is recorded as “high polyreactivity”. The value for “QVQLVESGGGLVQAGGSLRLSCAASGFIFLSNAMGWYRQAPGKERELVAAITSGGSTNYADSVKGRFTISRDNAKNTVYLQMNSLKPEDTAVYYCAARAPQWTFALGRWDRDYWGQGTQVTVSS” was “low polyreactivity”. Next, “QVQLVESGGGLVQAGGSLRLSCAASGSIFTGNAMGWYRQAPGKERELVAAITNGGITNYADSVKGRFTISRDNAKNTVYLQMNSLKPEDTAVYYCAADYVDFYSFRRFDYWGQGTQVTVSS”: “low polyreactivity”; “QVQLVESGGGLVQAGGSLRLSCAASGSTFNRYAMGWYRQAPGKERELVASISWGGGRTYYADSVKGRFTISRDNAKNTVYLQMNSLKPEDTAVYYCATDRYYRHYEVDYWGQGTQVTVSS”: “low polyreactivity”; “QVQLVESGGGLVQAGGSLRLSCAASGTTIGVNAMGWYRQAPGKERDLVAAISRRGASTYYADSVKGRFTISLDNAKNTVYLQMNSLKPEETAVYYCAKAQVHDYIVSMDRYGYWGQGTQVTVSS”: “low polyreactivity”. As to “QVQLVESGGGLDQAGGSLRLSCAASGRIFNKYAMGWYRQAPGKERELVAAISSGASTYYADSVKGRFTISRDNAKNTVYLQMNSLKPEDTAVYYCAAGGSKGGNYWGQGTQVTVSS”, the “polyreactivity (PSR sort gate)” value is on record as “high polyreactivity”. The value for “QVQLVETGGGLVQAGGSLRLSSAASGFIFGTYTMGWYRQAPGKERELVAAISTSSGSTYYADSVKGRFTISRDNAKNTVYLQMNSLKPEDTAVYYCAAPTRSYGTPPYDYWGQGTQVTVSS” was “low polyreactivity”. Next, “QVQLVESGGGLVQAGGKLRLSCAASGSIFSDYTMGWYRQAPGKERELVAVITLSSGSTYYADSVKGRFTISRDNAKNTVYLQMNSLKPEDTAVYYCAADGWYYFGSGVFEYDYWGQGTQVTVSS”: “low polyreactivity”; “QVQLVESGGGLVQAGGSLRLSCAASGSIFVYYGMGWYRQAPGKERELFAAISSGGSTHYADSVKGRFTISRDNAKNTVYLQMNSLKPEDTAVYYCAADRFFWLRSYPRYYYWGQGTQVTVSS”: “low polyreactivity”. Next, “QVQLVESGGGLVQAGGSLRISCAASGFTFRSYVMGWYRQAAGKEWELVAAISSRGSSTSYADSVKGRFTISRDNAKNTVYLQMNSLKPEDTAVYDCAPRLFWRGRKFAYWGQGTQVTVSS”: “high polyreactivity”; “QVQLVESGVGIVQAGGSLRLSCAASGFTFSSNAMGWYSQAPGKEREFVADISIIGGDTTYADSVKGRFTISRDNAKNTVYFQMNSLKAEDTADYYCIAKPPGWFWGGFSYNRYYYWGQGTQVTVSS”: “low polyreactivity”; “QVQLVESGGGLVQSGGSLRLSCAASGRTFGGYAMGWYRQAPGKERELVAAIRRSGGSTYYADSVKGLFTISRDNAKNTFYLQMKSMKPEDTAVYYCAAYGIYNVRIYYLGQGTQVTVSS”: “high polyreactivity”. For “QVQLVESGGGLVQAGGSLRLSCAASGSTFWYNAMGWYRQAPGKEREFVASISFRSGRTYYADSVKGRFTISRDNAKNTVYLQMNSLKPEDTAVYYCAADYYQYKYDYWGQGTQVTVSS”, the “polyreactivity (PSR sort gate)” value is “high polyreactivity”. Next, “QVQLVESGGGLVQAGGSLRLSCAASGRIFAYYAMGWYRQAPGKERELVAAISSGGSTKYADSVKGRFTISRDNAKNTVYLQMNSLKPEDTAVYYCAAKYGYRKYRGFQNGGDYWGQGTQVNVSS”: “high polyreactivity”; “QDQLVESGGGIVQEGGILRLSCAASGRIFVGYAMGWYRQAPGKERELVAAIRRYGTGTYYADSVKGRFTISRDNAKYTVYLKLNSLKTEDTAVYYCDAPELALYFPYDYWGQGTQVTVSS”: “low polyreactivity”. The value for “QVQLVESGGGLVQAGGSLRLSCAASGRTFPSYAMGWYRQAPGKERELVAGIRWGAGRTYYADSVKGRFTISRDNAKNTVYLQMNSLKPEVTAVYYCAADPWSGSDYWGQGTQVTVSS” was “low polyreactivity”; that for “QVQLVESGGGLVQAGGSLRLSCAASGRTFYFNGMGWYRQAPGQERELVARISRRGGSTYYADSVKGRFTISRDNAKNTVYLQMNSLKPEDTAVYYCNTANYLLYDWGQGTQVNVSS” was “high polyreactivity”.
